Results published in US20230114801A1 (SYSTIMMUNE, published 2023).

Columns and labels:
Test in all cases: BLI (Octet), binder on AHC sensor; antigen conditions not stated
human 4-1BB = target: T1, human 4-1BB (human, UniProt Q07011 24-186, limits assumed)
T1 construct: Soluble antigen in Octet; construct not described

human PD-L1 = target: T2, human PD-L1 (human, UniProt Q9NZQ7 19-238)
T2 construct: Soluble antigen in Octet; bought; also called human PD-L1 (Acro PD1-H5229)

CD19 = target: T3, CD19 (UniProt P15391 20-291, limits assumed)
T3 sequence (looked up): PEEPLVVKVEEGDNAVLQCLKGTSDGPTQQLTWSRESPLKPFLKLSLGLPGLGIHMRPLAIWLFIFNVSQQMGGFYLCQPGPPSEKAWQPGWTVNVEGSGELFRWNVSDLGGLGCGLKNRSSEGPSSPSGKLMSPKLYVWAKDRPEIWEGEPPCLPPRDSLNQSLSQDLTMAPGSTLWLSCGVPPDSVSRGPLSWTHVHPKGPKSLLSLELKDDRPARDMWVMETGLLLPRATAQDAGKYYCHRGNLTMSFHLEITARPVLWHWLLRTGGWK

B1: SI-68P16 (other)
chain 1: DPVLTQSPSSLSASVGDRVTISCQSSQSVAKNNNLAWFQQKPGQAPKLLIYSASTLAAGVPSRFSGSGSGTDFTLTISSVQPEDFATYYCSARDSGNIQSFGGGTKVEIKGGGGSGGGGSGGGGSGGGGSQQLVESGGGLVKPGGSLRLSCAASGIDLSSNAIGWVRQAPGKGLEWVGVIFGSGNTYYASWAKGRFTISRSKNTVYLQMNSLRAEDTAVYYCARGGYSSDIWGQGTLVTVSSGGGGSGGGGSQVQLQQSGPGLVKPSETLSITCTVSGFSLTNYGVHWIRQAPGKGLEWLGVIWSGGNTDYNTPFTSRFTITKDNSKNQVYFKLRSVRADDTAIYYCARALTYYDYEFAYWGQGTLVTVSSASTKGPSVFPLAPSSKSTSGGTAALGCLVKDYFPEPVTVSWNSGALTSGVHTFPAVLQSSGLYSLSSVVTVPSSSLGTQTYICNVNHKPSNTKVDKRVEPKSCDKTHTCPPCPAPEAAGGPSVFLFPPKPKDTLMISRTPEVTCVVVDVSHEDPEVKFNWYVDGVEVHNAKTKPREEQYNSTYRVVSVLTVLHQDWLNGKEYKCAVSNKALPAPIEKTISKAKGQPREPQVYTLPPSRDELTKNQVSLSCAVKGFYPSDIAVEWESNGQPENNYKTTPPVLDSDGSFFLVSKLTVDKSRWQQGNVFSCSVMHEALHNHYTQKSLSLSPGGGGGSGGGGSDVVMTQSPSSVSASVGDRVTITCQASQNIRTYLSWYQQKPGKAPKLLIYAAANLASGVPSRFSGSGSGTDFTLTISDLEPGDAATYYCQSTYLGTDYVGGAFGGGTKLTVLGGGGSGGGGSGGGGSGGGGSEVQLVESGGGLVQPGGSLRLSCTASGFTISSYHMQWVRQAPGKGLEYIGTISSGGNVYYASSARGRFTISRPSSKNTVDLQMNSLRAEDTAVYYCARDSGYSDPMWGQGTLVTVSS
chain 2: ENVLTQSPASLSASPGERVTITCSASSSVSYMHWYQQKPGQAPKLWIYDTSKLASGVPSRFSGSGSGNDHTLTISSMEPEDFATYYCFQGSVYPFTFGQGTKVTVLGGGGSGGGGSGGGGSGGGGSQVTLKESGPGLVQPGQTLSLTCAFSGFSLSTSGMGVGWIRQPPGKGLEWLAHIWWDDDKRYNPALKSRLTISKDTSKNQVYLQMNSLDAEDTAVYYCARMELWSYYFDYWGQGTLVTVSSGGGGSGGGGSEIVLTQSPSTLSVSPGERATFSCRASQSIGTNIHWYQQKPGKPPRLLIKYASESISGIPDRFSGSGSGTEFTLTISSVQSEDFAVYYCQQNNNWPTTFGPGTKLTVLRTVAAPSVFIFPPSDEQLKSGTASVVCLLNNFYPREAKVQWKVDNALQSGNSQESVTEQDSKDSTYSLSSTLTLSKADYEKHKVYACEVTHQGLSSPVTKSFNRGECGGDKTHTCPPCPAPEAAGGPSVFLFPPKPKDTLMISRTPEVTCVVVDVSHEDPEVKFNWYVDGVEVHNAKTKPREEQYNSTYRVVSVLTVLHQDWLNGKEYKCAVSNKALPAPIEKTISKAKGQPREPQVYTLPPSRDELTKNQVSLWCLVKGFYPSDIAVEWESNGQPENNYKTTPPVLDSDGSFFLYSKLTVDKSRWQQGNVFSCSVMHEALHNRFTQKSLSLSPGGGGGSGGGGSDIQMTQSPSTLSASVGDRVTITCQASQSISSHLNWYQQKPGKAPKLLIYKASTLASGVPSRFSGSGSGTEFTLTISSLQPDDFATYYCQQGYSWGNVDNVFGGGTKVTVLGGGGSGGGGSGGGGSGGGGSEVQLLESGGGLVQPGGSLSLSCAASGFSFSSGYDMCWVRQAPGKGLEWIACIAAGSAGITYDANWAKGRFTISRDNSKNTLYLQMNSLRAEDTAVYYCARSAFSFDYAMDLWGQGTLVTVSS
notes: penta-miniGNC; D1 αCD3***** (humanized framework 4), D2 αCD19, D3 αEGFR (Fab), D4 α4-1BB, D5 αPD-L1
Q: For B1, which Kd (human 4-1BB) is on record?
A: 23.3 nM

Q: What about the Kd (human PD-L1) of the same binder?
A: 0.5 nM

Q: And the Kd (CD19)?
A: 2.55 nM
